T1: full-length untagged human GPNMB expressed on cells (human, UniProt Q14956 23-572)
T1 sequence: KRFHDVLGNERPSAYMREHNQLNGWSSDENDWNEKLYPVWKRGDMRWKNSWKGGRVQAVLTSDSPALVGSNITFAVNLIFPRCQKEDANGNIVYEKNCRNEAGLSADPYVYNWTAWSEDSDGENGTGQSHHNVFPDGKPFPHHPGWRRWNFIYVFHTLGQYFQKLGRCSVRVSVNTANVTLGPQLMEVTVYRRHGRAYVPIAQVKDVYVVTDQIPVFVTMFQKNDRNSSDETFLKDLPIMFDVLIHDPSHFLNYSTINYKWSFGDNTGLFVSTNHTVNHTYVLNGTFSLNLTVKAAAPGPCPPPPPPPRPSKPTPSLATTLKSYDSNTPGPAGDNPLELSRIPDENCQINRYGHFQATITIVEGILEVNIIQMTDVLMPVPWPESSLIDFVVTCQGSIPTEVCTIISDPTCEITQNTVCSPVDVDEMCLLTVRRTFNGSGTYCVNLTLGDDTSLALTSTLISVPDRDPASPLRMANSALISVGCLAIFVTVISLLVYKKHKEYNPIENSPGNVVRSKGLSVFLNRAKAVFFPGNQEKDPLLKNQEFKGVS

T2: mouse GPNMB endogenously expressed on B16F10 cells (mouse, UniProt Q99P91 23-574)
T2 construct: whole, on cells; also called moGPNMB
T2 sequence (looked up): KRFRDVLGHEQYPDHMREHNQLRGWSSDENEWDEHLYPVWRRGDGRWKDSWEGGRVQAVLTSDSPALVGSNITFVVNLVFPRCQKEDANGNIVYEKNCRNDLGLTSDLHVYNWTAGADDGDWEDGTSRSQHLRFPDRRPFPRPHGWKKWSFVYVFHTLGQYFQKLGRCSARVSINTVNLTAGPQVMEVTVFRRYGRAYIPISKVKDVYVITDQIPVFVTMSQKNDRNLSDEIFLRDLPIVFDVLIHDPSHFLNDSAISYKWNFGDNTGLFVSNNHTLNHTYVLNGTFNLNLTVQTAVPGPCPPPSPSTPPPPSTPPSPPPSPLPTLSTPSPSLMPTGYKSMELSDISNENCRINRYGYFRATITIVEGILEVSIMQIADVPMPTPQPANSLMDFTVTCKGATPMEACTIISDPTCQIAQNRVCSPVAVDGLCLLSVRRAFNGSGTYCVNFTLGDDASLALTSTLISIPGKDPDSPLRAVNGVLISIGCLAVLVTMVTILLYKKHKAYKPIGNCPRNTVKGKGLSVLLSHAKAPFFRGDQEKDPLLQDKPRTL


Key:
[1] = target: T1, full-length untagged human GPNMB …; assay: cell-based or functional assay
[2] = target: T2, mouse GPNMB endogenously expressed on …; assay: FACS, B16F10 cells
Experimental: Recombinant anti-GPNMB antibodies of the present disclosure were examined for their ability to bind human and/or mouse GPNMB expressed on Freestyle293-huGPNMB+ or B16F10 cells, respectively. B16F10 cells are a murine melanoma cell line from a C57BL/6J mouse that endogenously express high levels of mouse GPNMB. The antibodies were also tested for their ability to bind to a human macrophage cell line (U937 cells) engineered to express human GPNMB. Cells were harvested, plated at 100,000 cells/well in a 96-well round bottom plate, and incubated in 100 μl FACS buffer (PBS containing 2% FBS, 2 mM EDTA) containing anti-GPNMB monoclonal antibodies of the present disclosure for 30 minutes on ice. Cells were then washed and incubated in 100 ul FACS buffer containing 1 μg/ml APC-conjugated anti-human IgG secondary antibody for 30 minutes in ice. Cells were washed twice in cold FACS buffer and acquired on a BD FACS Canto. Data analysis and calculation of MFI values was performed with FlowJo (TreeStar) software version 10.0.7. […]

[3] = target: T1, full-length untagged human GPNMB …; assay: FACS, FS293-huGPNMB+ cells
Experimental: Recombinant anti-GPNMB antibodies of the present disclosure were examined for their ability to bind human and/or mouse GPNMB expressed on Freestyle293-huGPNMB+ or B16F10 cells, respectively. B16F10 cells are a murine melanoma cell line from a C57BL/6J mouse that endogenously express high levels of mouse GPNMB. The antibodies were also tested for their ability to bind to a human macrophage cell line (U937 cells) engineered to express human GPNMB. Cells were harvested, plated at 100,000 cells/well in a 96-well round bottom plate, and incubated in 100 μl FACS buffer (PBS containing 2% FBS, 2 mM EDTA) containing anti-GPNMB monoclonal antibodies of the present disclosure for 30 minutes on ice. Cells were then washed and incubated in 100 ul FACS buffer containing 1 μg/ml APC-conjugated anti-human IgG secondary antibody for 30 minutes in ice. Cells were washed twice in cold FACS buffer and acquired on a BD FACS Canto. Data analysis and calculation of MFI values was performed with FlowJo (TreeStar) software version 10.0.7.
Importantly, several anti-GPNMB antibodies of the present disclosure also bound to the human macrophage cell line U937 cells engineered to express human GPNMB (U937/huGPNMB+) (FIG. 2C). In FIG. 2C, the first data point in each pair corresponds to U937/huGPNMB+ cells, and the second data point in each pair corresponds to U937/huGPNMB− cells. No anti-GPNMB antibodies bound to U937 cells deficient in human GPNMB expression (U937/huGPNMB−).

[4] = target: T1, full-length untagged human GPNMB …; assay: FACS titration, FS293-huGPNMB+ cells
Experimental: Cell-based binding measurements were also performed to measure the apparent affinities of anti-GPNMB antibodies of the present disclosure to cell-surface expressed GPNMB. Serial dilutions of the monoclonal anti-GPNMB antibodies were added to 100,000 Freestyle293-huGPNMB+ or B16F10 cells and allowed to achieve binding equilibrium at 4° C. After addition of fluorescently labeled secondary antibody and brief washing steps, MFI values as a function of titrated antibody concentration was recorded via FACS analysis. Curves were fit using nonlinear regression analysis with Graphpad Prism 6 software.

Binder	CD40 (FoB) [1]	CD80 (FoB) [1]	GCase (FoB) [1]	PDL1 (FoB) [1]	MFI fold over background [2]	MFI fold over background [3]	EC50 [4]
anti-GPNMB antibody GPN-48 (antibody, human IgG1, V domains shown, chimeric) VH: QVQLQQSGPELVKPGASVKLSCRASGYGFSSFWMNWVKQRPGKGLEWIGRIYPGKGDTLYNGKFKDKATLTADESSSTAYMQLSSLTSEDSAVYFCARSIYYYDYWYFDVWDTGTTVTVSS VL: DIVMTQSHKFMSTSVGDRVNITCKASQDVNSAIAWYQQKPGQSPKLLIYSASYRFIGVPDRFTGSGSGTGFTFTISSVQAEDLAVYYCQQHYTTPLTFGAGTKLELK	1.06 FoB	1.06 FoB	1.02 FoB	1.14 FoB	–	9.7 fold	18.8 nM
anti-GPNMB antibody GPN-42 (antibody, human IgG1, V domains shown, chimeric) VH: DVKLVESGEDLVKPGGSLKLSCAASGFTFSSYAMSWVRQTPEKRLEWVAYISSGGDYIYYADTVKGRFTISRDNARNTLYLQMSSLKSEDTAMYYCTRDRYYDYDVRDYYTMDYWGQGTSVTVSS VL: DVMMTQTPLSLPVSLGDQASISCRSSQSLVHSNGNTYLHWFLQKPGQSPKLLIFRVSNRFSGVPDRFSGRGSGTDFTLKISRVEAEDLGVYFCSQTTHVPRTFGGGTTLEIK	–	–	–	–	2.6 fold	–	–
anti-GPNMB antibody GPN-41 (antibody, human IgG1, V domains shown, chimeric) VH: QLQLQQSGTEVVKPGASVKIPCKASGYAFSSYWMNWVKQRPGKGLEWIGQIYPGDGDTNDNGKFEGKATLTVDKSSNTAYIQLSSLTSEDSAVYFCARSPLHLRGSMDYWGQGTSVTVSS VL: SIVMTQTPKFLLVSAGDRVTITCKASQSVSNDVAWFQQKPGQSPELLIYSASNRYTGVPDRFTASGYGTDFTFTISAVQAEDLAVYFCQQNYYSPFTFGGGTRLEIK	–	–	–	–	15 fold	23.6 fold	3.88 nM
anti-GPNMB antibody GPN-61 (antibody, human IgG1, V domains shown, chimeric) VH: DVQLQESGPGLVKPSQTVFLTCTVTGISITTGNYRWSWIRQFPGNKLEWIGYIYYSGTITYNPSLTSRTTITRDTPKNQFFLEMSSLTAEDTATYFCARDLRHWYFDVWGTGTTVTVSS VL: not shown	1.61 FoB	1.5 FoB	1.46 FoB	1.52 FoB	–	18.6 fold	7.25 nM
anti-GPNMB antibody GPN-43 (antibody, human IgG1, V domains shown, chimeric) VH: EVQLQQSGPELVKPGASVKISCKASGYTFTDYYMNWVRQSHGKSLEWIGDINPYHGGSTYNQKIKVKATLTVDKSSSTAYMELRSLTSEDSAVYYCARNWPYFDYWGQGTTLTVSS VL: DIQMTQSPASLSASVGETVTITCRASENIYSFLVWYQQKQGKSPQLLVYNAKTLAEGVPSRFSGSGSGTQFSLKISSLQPEDFGSYYCQHHFGTPPYTFGGGTKLEIK	1.06 FoB	1.08 FoB	1.01 FoB	1.05 FoB	1.6 fold	–	–

Continued, values first:

CD40 (FoB) [1]	CD80 (FoB) [1]	GCase (FoB) [1]	PDL1 (FoB) [1]	MFI fold over background [2]	MFI fold over background [3]	EC50 [4]	Binder
1.74 FoB	1.36 FoB	1.05 FoB	1.7 FoB	1 fold	43.2 fold	0.17 nM	anti-GPNMB antibody GPN-01 (antibody, human IgG1, V domains shown, chimeric) VH: QVQLQQSGAELAKPGASVKLSCKASGYNFTNYCIHWVKQRPGQGLEWIGYINPSTGYTEYNQKFKDKATLTADKSSTTAYMQLSSLTSEDSAVYYCARGRYDEFTYWGQGTLVTVSA VL: DIVLTQSPASLAVSLGQRATISCRASKSVSTSTYSYMHWYQQKPGQPPKLLIYLASNLESGVPARFSGSGSGTDFTLNIHPVEEEDAATYYCQHSRELPPTFGGGTKLEIK
1.7 FoB	1.25 FoB	1.24 FoB	1.64 FoB	1 fold	56.2 fold	0.3 nM	anti-GPNMB antibody GPN-11 (antibody, human IgG1, V domains shown, chimeric) VH: QVQLQQPGAELVKPGASVKLSCKASGYTFTSYWMHWVKQRPGQGLEWIGEINSSNGRTNYNEKFKTKATLTVDRSSSTAYMQLSSLTSEDSAVYYCARLGYYSGSPYPYYAMDCWGQGTSVTVSS VL: DIQMTQSPASLSVSVGETVTITCRASENIYSNLAWYQQKQGKSPQLLVYAATNLADGVPSRFSGSGSGTQYSLKINSLQSEDFGSYYCQHFWNTPPTFGGGTKLEIK
–	–	–	–	6.9 fold	8.1 fold	2.6 nM	anti-GPNMB antibody GPN-65 (antibody, human IgG1, V domains shown, chimeric) VH: QLQLQQSGTEVVKPGASVKIPCKASGYAFSSYWMNWVKQRPGKGLEWIGQIYPGDGDTNDNGKFEGKATLTVDKSSNTAYIQLSSLTSEDSAVYFCARSPLHLRGSMDYWGQGTSVTVSS VL: SIVMTQTPKFLLVSAGDRVTITCKASQSVSNDVAWFQQKPGQSPELLIYSASNRYTGVPDRFTGSGYGTDFTFTISTVQAEDLAVYFCQQNYYSPFTFGGGTRLEIK
1.56 FoB	1.2 FoB	1.22 FoB	1.48 FoB	1 fold	59.9 fold	0.22 nM	anti-GPNMB antibody GPN-24 (antibody, human IgG1, V domains shown, chimeric) VH: QVQLQQPGAELVKPGASVKMSCKASGYTFTSYWITWVKQRPGQGLEWIGDIHPGSGRSNYNEKFKNKATLNVDTSSSTVYMQLSSLTSEDSAVYYCARDYLFAYWGQGTLVTVSA VL: DIQMTQSPSSLSASLGERVSLTCRASQEISGYLSWLQQKPDGTIKRLIYSTSTLDSGVPKRFSGSRSGSDYSLTISSLESEDFADYYCLQYTSSPPTFGGGTKLEIK
1.91 FoB	1.4 FoB	–	1.88 FoB	1 fold	46.3 fold	1.09 nM	anti-GPNMB antibody GPN-26 (antibody, human IgG1, V domains shown, chimeric) VH: EVQLQQSGPELVKPGASVKISCKASGYSFTGYYMNWVRQSPEKSLEWIGEINPSTGITTYNQKFKAKATLTVDKSSNTAFMQLKSLTSEDSAVYYCARPASWFDYWGQGTLVTVSA VL: DIQMTQSPSSLSASLGERVSLTCRASQEISGHLSWLQQKPDGTIKRLIYAASTLDSGVPKRFSGSRSGSDYSLTISSLESEDFADYYCLQYASYPYTFGGGTKLEIK

Reference: patent US20250270343A1 (Alector, published 2025)
